Test results: EP4725969A1 (Latticon (Suzhou) Biopharmaceuticals Co., Ltd., dated 2024)

Molecular target: T1, recombinant human HER2 extracellular domain protein (human, UniProt P04626 23-652)
T1 construct: range 23-652; Range is printed for the immunogen/panning protein; also called ErbB2; recombinant HER2 protein
Assay: BLI, Protein A capture

| Binder | Kd [nM] | koff [s⁻¹] | kon [M⁻¹ s⁻¹] |
| --- | --- | --- | --- |
| Hu2117HK-Mu01 (Fc fusion, scFv-hIgG1 Fc; not shown: human IgG1 Fc) scFv: EVQLVESGGGLVQPGGSLRLSCAASGFTYSSYGMSWVRQAPGKGLEWVASISGGGSYTKYPDSVKGRFTISRDNSKNTLYLQMNSLRAEDTAVYYCARDYAGFFDVWGQGTLVTVSSGGGGSGGGGSGGGGSDIQMTQSPSSLSASVGDRVTITCRSSQSLVHSNGNTYLHWYQQKPGKSPKLLIYKVSNRFSGVPSRFSGSGSGTDFTLTISSLQPEDFATYFCSQSTHVPYTFGQGTKVEIK | 8.33 | 0.000718 | 86200 |
| Hu2117HK-Mu02 (Fc fusion, scFv-hIgG1 Fc; not shown: human IgG1 Fc) scFv: EVQLVESGGGLVQPGGSLRLSCAASGFTYSSYGMSWVRQAPGKGLEWVASISGGGSYTKYPDSVKGRFTISRDNSKNTLYLQMNSLRAEDTAVYYCARDYAGFFDVWGQGTLVTVSSGGGGSGGGGSGGGGSDIQMTQSPSSLSASVGDRVTITCRSSQSLVHSNGNTYLHWYQQKPGKAPKLLIYKVSNRFSGVPSRFSGSGSGTDFTLTISSLQPEDFAVYFCSQSTHVPYTFGQGTKVEIK | 8.32 | 0.000737 | 88600 |
| Hu2117HK-Mu03 (Fc fusion, scFv-hIgG1 Fc; not shown: human IgG1 Fc) scFv: EVQLVESGGGLVQPGGSLRLSCAASGFTYSSYGMSWVRQAPGKGLEWVASISGGGSYTKYPDSVKGRFTISRDNSKNTLYLQMNSLRAEDTAVYYCARDYAGFFDVWGQGTLVTVSSGGGGSGGGGSGGGGSDVQMTQSPSSLSASVGDRVTITCRSSQSLVHSNGNTYLHWYQQKPGKAPKLLIYKVSNRFSGVPSRFSGSGSGTDFTLTISSLQPEDFATYFCSQSTHVPYTFGQGTKVEIK | 8.69 | 0.00071 | 81600 |
| Hu2117HK-Mu04 (Fc fusion, scFv-hIgG1 Fc; not shown: human IgG1 Fc) scFv: EVQLVESGGGLVQPGGSLRLSCAASGFTYSSYGMSWVRQAPGKGLEWVASISGGGSYTKYPDSVKGRFTISRDNSKNTLYLQMNSLRAEDTAVYYCARDYAGFFDVWGQGTLVTVSSGGGGSGGGGSGGGGSDIQLTQSPSSLSASVGDRVTITCRSSQSLVHSNGNTYLHWYQQKPGKAPKLLIYKVSNRFSGVPSRFSGSGSGTDFTLTISSLQPEDFATYFCSQSTHVPYTFGQGTKVEIK | 9.88 | 0.000895 | 90600 |
| Hu2117HK-Mu05 (Fc fusion, scFv-hIgG1 Fc; not shown: human IgG1 Fc) scFv: EVQLVESGGGLVQPGGSLRLSCAASGFTFSSYGMSWVRQAPGKGLEWVASISGGGSYTKYPDSVKGRFTISRDNSKNTLYLQMNSLRAEDTAVYYCARDYAGFFDVWGQGTLVTVSSGGGGSGGGGSGGGGSDIQMTQSPSSLSASVGDRVTITCRSSQSLVHSNGNTYLHWYQQKPGKAPKLLIYKVSNRFSGVPSRFSGSGSGTDFTLTISSLQPEDFATYFCSQSTHVPYTFGQGTKVEIK | 6.76 | 0.000529 | 78300 |
| Hu2117HK-Mu06 (Fc fusion, scFv-hIgG1 Fc; not shown: human IgG1 Fc) scFv: EVQLVESGGGLVQPGGSLRLSCAASGFTYSSYGMSWVRQAPGKGLEWVSSISGGGSYTKYPDSVKGRFTISRDNSKNTLYLQMNSLRAEDTAVYYCARDYAGFFDVWGQGTLVTVSSGGGGSGGGGSGGGGSDIQMTQSPSSLSASVGDRVTITCRSSQSLVHSNGNTYLHWYQQKPGKAPKLLIYKVSNRFSGVPSRFSGSGSGTDFTLTISSLQPEDFATYFCSQSTHVPYTFGQGTKVEIK | 8.18 |  | 82600 |
| Hu2117HK-Mu07 (Fc fusion, name in Kabat numbering, scFv-hIgG1 Fc; not shown: human IgG1 Fc) scFv: EVQLVESGGGLVQPGGSLRLSCAASGFTYSSYGMSWVRQAPGKGLEWVASISGGGSYTYYPDSVKGRFTISRDNSKNTLYLQMNSLRAEDTAVYYCARDYAGFFDVWGQGTLVTVSSGGGGSGGGGSGGGGSDIQMTQSPSSLSASVGDRVTITCRSSQSLVHSNGNTYLHWYQQKPGKAPKLLIYKVSNRFSGVPSRFSGSGSGTDFTLTISSLQPEDFATYFCSQSTHVPYTFGQGTKVEIK | 11.7 | 0.000465 | 39800 |
| Hu2117HK-Mu08 (Fc fusion, scFv-hIgG1 Fc; not shown: human IgG1 Fc) scFv: EVQLVESGGGLVQPGGSLRLSCAASGFTYSSYGMSWVRQAPGKGLEWVASISGGGSYTKYADSVKGRFTISRDNSKNTLYLQMNSLRAEDTAVYYCARDYAGFFDVWGQGTLVTVSSGGGGSGGGGSGGGGSDIQMTQSPSSLSASVGDRVTITCRSSQSLVHSNGNTYLHWYQQKPGKAPKLLIYKVSNRFSGVPSRFSGSGSGTDFTLTISSLQPEDFATYFCSQSTHVPYTFGQGTKVEIK | 6.65 | 0.000495 | 74500 |

Molecular target: T1, recombinant human HER2 extracellular …
Assay: BLI, Protein A capture
Remark: another data set of the same source

| Binder | Kd [nM] | koff [s⁻¹] | kon [M⁻¹ s⁻¹] |
| --- | --- | --- | --- |
| 2126-Hu-L10 (antibody, IgG1, V domains shown, IgG1/Cκ) VH: QVQLVQSGSELKKPGASVKVSCKASGYTFTDYSMHWVRQAPGQGLEWMGWINTETGEPTYADDFKGRFVFSLDTSVSTAYLQISSLKAEDTAVYFCVRVGRYDYAMDYWGQGTTVTVSS VL: DIQMTQSPSSLSASVGDRVTITCKASQDVYTAVAWYQQKPGKAPKLLINSASNRYTGVPSRFSGSGSGTDFTLTISSLQPEDFATYYCQQHYSTPPTFGGGTKVEIK | 5.38 | 0.000558 | 104000 |
| 2126-Hu-L11 (antibody, IgG1, V domains shown, IgG1/Cκ) VH: QVQLVQSGSELKKPGASVKVSCKASGYTFTDYSMHWVRQAPGQGLEWMGWINTETGEPTYADDFKGRFVFSLDTSVSTAYLQISSLKAEDTAVYFCVRVGRYDYAMDYWGQGTTVTVSS VL: DIQMTQSPSSLSASVGDRVTITCKASQDVYTAVAWYQQKPGKAPKLLINSASQRYTGVPSRFSGSGSGTDFTLTISSLQPEDFATYYCQQHYSTPPTFGGGTKVEIK | 6.25 | 0.000651 | 104000 |
| 2126-Hu-L12 (antibody, IgG1, V domains shown, IgG1/Cκ) VH: QVQLVQSGSELKKPGASVKVSCKASGYTFTDYSMHWVRQAPGQGLEWMGWINTETGEPTYADDFKGRFVFSLDTSVSTAYLQISSLKAEDTAVYFCVRVGRYDYAMDYWGQGTTVTVSS VL: DIQMTQSPSSLSASVGDRVTITCKASQDVYTAVAWYQQKPGKAPKLLINSASSRYTGVPSRFSGSGSGTDFTLTISSLQPEDFATYYCQQHYSTPPTFGGGTKVEIK | 6.13 | 0.000619 | 101000 |
| 2126-Hu-L13 (antibody, IgG1, V domains shown, IgG1/Cκ) VH: QVQLVQSGSELKKPGASVKVSCKASGYTFTDYSMHWVRQAPGQGLEWMGWINTETGEPTYADDFKGRFVFSLDTSVSTAYLQISSLKAEDTAVYFCVRVGRYDYAMDYWGQGTTVTVSS VL: DIQMTQSPSSLSASVGDRVTITCKASQDVYTAVAWYQQKPGKAPKLLINSASTRYTGVPSRFSGSGSGTDFTLTISSLQPEDFATYYCQQHYSTPPTFGGGTKVEIK | 5.34 | 0.000531 | 99500 |
| 2126-Hu-L14 (antibody, IgG1, V domains shown, IgG1/Cκ) VH: QVQLVQSGSELKKPGASVKVSCKASGYTFTDYSMHWVRQAPGQGLEWMGWINTETGEPTYADDFKGRFVFSLDTSVSTAYLQISSLKAEDTAVYFCVRVGRYDYAMDYWGQGTTVTVSS VL: DIQMTQSPSSLSASVGDRVTITCKASQDVYTAVAWYQQKPGKAPKLLINSASYRATGVPSRFSGSGSGTDFTLTISSLQPEDFATYYCQQHYSTPPTFGGGTKVEIK | 6.48 | 0.000666 | 103000 |
| 2126-Hu-L15 (antibody, IgG1, V domains shown, IgG1/Cκ) VH: QVQLVQSGSELKKPGASVKVSCKASGYTFTDYSMHWVRQAPGQGLEWMGWINTETGEPTYADDFKGRFVFSLDTSVSTAYLQISSLKAEDTAVYFCVRVGRYDYAMDYWGQGTTVTVSS VL: DIQMTQSPSSLSASVGDRVTITCKASQDVYTAVAWYQQKPGKAPKLLINSASYRETGVPSRFSGSGSGTDFTLTISSLQPEDFATYYCQQHYSTPPTFGGGTKVEIK | 8.29 | 0.000906 | 109000 |
| 2126-Hu-L16 (antibody, IgG1, V domains shown, IgG1/Cκ) VH: QVQLVQSGSELKKPGASVKVSCKASGYTFTDYSMHWVRQAPGQGLEWMGWINTETGEPTYADDFKGRFVFSLDTSVSTAYLQISSLKAEDTAVYFCVRVGRYDYAMDYWGQGTTVTVSS VL: DIQMTQSPSSLSASVGDRVTITCKASQDVYTAVAWYQQKPGKAPKLLINSASYRPTGVPSRFSGSGSGTDFTLTISSLQPEDFATYYCQQHYSTPPTFGGGTKVEIK | 4.38 | 0.000464 | 106000 |
| 2126-Hu-L17 (antibody, IgG1, V domains shown, IgG1/Cκ) VH: QVQLVQSGSELKKPGASVKVSCKASGYTFTDYSMHWVRQAPGQGLEWMGWINTETGEPTYADDFKGRFVFSLDTSVSTAYLQISSLKAEDTAVYFCVRVGRYDYAMDYWGQGTTVTVSS VL: DIQMTQSPSSLSASVGDRVTITCKASQDVYTAVAWYQQKPGKAPKLLINSASYRQTGVPSRFSGSGSGTDFTLTISSLQPEDFATYYCQQHYSTPPTFGGGTKVEIK | 7.91 | 0.000786 | 99300 |
| 2126-Hu-L18 (antibody, IgG1, V domains shown, IgG1/Cκ) VH: QVQLVQSGSELKKPGASVKVSCKASGYTFTDYSMHWVRQAPGQGLEWMGWINTETGEPTYADDFKGRFVFSLDTSVSTAYLQISSLKAEDTAVYFCVRVGRYDYAMDYWGQGTTVTVSS VL: DIQMTQSPSSLSASVGDRVTITCKASQDVYTAVAWYQQKPGKAPKLLINSASYRYTGVPSRFSGSGSGTDFTLTISSLQPEDFATYYCQQSYSTPPTFGGGTKVEIK | 8.83 | 0.000912 | 103000 |
| 2126-Hu-L19 (antibody, IgG1, V domains shown, IgG1/Cκ) VH: QVQLVQSGSELKKPGASVKVSCKASGYTFTDYSMHWVRQAPGQGLEWMGWINTETGEPTYADDFKGRFVFSLDTSVSTAYLQISSLKAEDTAVYFCVRVGRYDYAMDYWGQGTTVTVSS VL: DIQMTQSPSSLSASVGDRVTITCKASQDVYTAVAWYQQKPGKAPKLLINSASYRYTGVPSRFSGSGSGTDFTLTISSLQPEDFATYYCQQAYSTPPTFGGGTKVEIK | 8.07 | 0.00085 | 105000 |
| 2126-Hu-L21 (antibody, IgG1, V domains shown, IgG1/Cκ) VH: QVQLVQSGSELKKPGASVKVSCKASGYTFTDYSMHWVRQAPGQGLEWMGWINTETGEPTYADDFKGRFVFSLDTSVSTAYLQISSLKAEDTAVYFCVRVGRYDYAMDYWGQGTTVTVSS VL: DIQMTQSPSSLSASVGDRVTITCKASQDVYTAVAWYQQKPGKAPKLLINSASYRYTGVPSRFSGSGSGTDFTLTISSLQPEDFATYYCQQYYSTPPTFGGGTKVEIK | 1.77 | 0.000193 | 109000 |
